From US20240109961A1 (CELLDEX THERAPEUTICS, published 2024)

Assays:
[1] = biological target: T1, human neonatal Fc Receptor (FcRn) (human, UniProt P55899 24-297; P61769 21-119); test: bio-layer interferometry (Octet QKe), His-tagged FcRn captured on anti-Penta-His biosensors, pH 7.2, antibody range 500-15.6 nM, R2 0.9876
T1 construct: not shown: histidine tag

[2] = biological target: T2, recombinant human FcγRIIb (human, UniProt P31994 46-217, limits assumed); test: bio-layer interferometry (Octet QKe); His-tagged receptor on anti-Penta-His biosensor, antibody in solution
T2 construct: Histidine-tagged recombinant receptor; not shown: histidine tag
T2 sequence (looked up): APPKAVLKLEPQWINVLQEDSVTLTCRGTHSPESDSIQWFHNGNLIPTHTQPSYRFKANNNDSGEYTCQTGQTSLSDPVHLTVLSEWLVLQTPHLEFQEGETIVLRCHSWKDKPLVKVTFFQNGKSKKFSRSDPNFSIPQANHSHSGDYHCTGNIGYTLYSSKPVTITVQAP

[3] = biological target: T3, recombinant human FcγRIIIa (human, UniProt P08637 17-208); test: as above
T3 construct: Histidine-tagged recombinant receptor; not shown: histidine tag

[4] = biological target: T4, recombinant human FcγRIIa (human, UniProt P12318 36-218, limits assumed); test: as above
T4 construct: Histidine-tagged recombinant receptor; not shown: histidine tag
T4 sequence (looked up): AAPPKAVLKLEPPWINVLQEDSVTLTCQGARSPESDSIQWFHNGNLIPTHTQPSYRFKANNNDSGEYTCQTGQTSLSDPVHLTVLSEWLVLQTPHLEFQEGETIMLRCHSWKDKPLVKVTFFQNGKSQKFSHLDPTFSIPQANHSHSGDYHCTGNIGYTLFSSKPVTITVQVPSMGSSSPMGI

[5] = biological target: T5, recombinant human FcγRIIIb (human, UniProt O75015 17-200); test: as above
T5 construct: Histidine-tagged recombinant receptor; not shown: histidine tag

[6] = biological target: T6, recombinant human FcγRI (human, UniProt P12314 16-288, limits assumed); test: as above
T6 construct: Histidine-tagged recombinant receptor captured on anti-Penta-His biosensors; also called Fc-gamma receptor I; not shown: histidine tag

[7] = biological target: T1, human neonatal Fc Receptor (FcRn); test: bio-layer interferometry (Octet QKe) at pH 7.2; His-tagged FcRn on anti-Penta-His biosensor, antibody in solution
Description: (§1) Binding to recombinant human Fc receptors was measured by bio-layer interferometry using an Octet® QKe instrument. […] Curve fitting was performed using the instrument's analysis software. Binding to FcRn was performed with association and dissociation steps at pH 6.0 as well as pH 7.2.

[8] = biological target: T1, human neonatal Fc Receptor (FcRn); test: bio-layer interferometry (Octet QKe), His-tagged FcRn captured on anti-Penta-His biosensors, pH 7.2, antibody range 500-15.6 nM, R2 0.9876; row head Kdis(1/s)
Description: as §1

[9] = biological target: T1, human neonatal Fc Receptor (FcRn); test: bio-layer interferometry (Octet QKe), His-tagged FcRn captured on anti-Penta-His biosensors, pH 6.0, antibody range 31.25-1.9 nM, R2 0.9869; row head Kdis(1/s)
Description: as §1

[10] = biological target: human KIT (wild-type KIT) (human, UniProt P10721 26-976); test: cell-based or functional assay
[11] = biological target: T1, human neonatal Fc Receptor (FcRn); test: bio-layer interferometry (Octet QKe) at pH 6.0; His-tagged FcRn on anti-Penta-His biosensor, antibody in solution
Description: as §1

[12] = biological target: T1, human neonatal Fc Receptor (FcRn); test: bio-layer interferometry (Octet QKe), His-tagged FcRn captured on anti-Penta-His biosensors, pH 6.0, antibody range 31.25-1.9 nM, R2 0.9869
Description: as §1

T1 sequence (P55899 24-297 limits assumed, form in doubt, chain 1 of 2): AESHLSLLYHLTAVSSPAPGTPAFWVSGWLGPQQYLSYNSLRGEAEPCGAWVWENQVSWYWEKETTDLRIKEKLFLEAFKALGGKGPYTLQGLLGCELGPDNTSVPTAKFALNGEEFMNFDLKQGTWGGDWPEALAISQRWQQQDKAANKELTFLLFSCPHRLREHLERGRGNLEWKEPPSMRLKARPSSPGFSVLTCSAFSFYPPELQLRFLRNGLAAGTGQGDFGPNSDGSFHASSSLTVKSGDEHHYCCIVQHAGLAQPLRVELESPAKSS
T1 sequence (P61769 21-119 limits assumed, form in doubt, chain 2 of 2): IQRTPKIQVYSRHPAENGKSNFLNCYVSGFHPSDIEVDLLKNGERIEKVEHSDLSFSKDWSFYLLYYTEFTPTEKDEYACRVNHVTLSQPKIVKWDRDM
T6 sequence (P12314 16-288 limits assumed): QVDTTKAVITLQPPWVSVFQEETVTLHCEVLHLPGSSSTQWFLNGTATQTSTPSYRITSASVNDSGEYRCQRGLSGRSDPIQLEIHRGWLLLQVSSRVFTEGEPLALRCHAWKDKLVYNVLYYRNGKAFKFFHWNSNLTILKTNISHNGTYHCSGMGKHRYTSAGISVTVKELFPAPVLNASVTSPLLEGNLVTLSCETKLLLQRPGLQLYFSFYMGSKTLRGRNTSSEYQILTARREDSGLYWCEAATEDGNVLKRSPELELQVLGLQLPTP
human KIT (wild-type KIT), sequence (P10721 other isoform, or with tags, fused parts or gaps limits assumed): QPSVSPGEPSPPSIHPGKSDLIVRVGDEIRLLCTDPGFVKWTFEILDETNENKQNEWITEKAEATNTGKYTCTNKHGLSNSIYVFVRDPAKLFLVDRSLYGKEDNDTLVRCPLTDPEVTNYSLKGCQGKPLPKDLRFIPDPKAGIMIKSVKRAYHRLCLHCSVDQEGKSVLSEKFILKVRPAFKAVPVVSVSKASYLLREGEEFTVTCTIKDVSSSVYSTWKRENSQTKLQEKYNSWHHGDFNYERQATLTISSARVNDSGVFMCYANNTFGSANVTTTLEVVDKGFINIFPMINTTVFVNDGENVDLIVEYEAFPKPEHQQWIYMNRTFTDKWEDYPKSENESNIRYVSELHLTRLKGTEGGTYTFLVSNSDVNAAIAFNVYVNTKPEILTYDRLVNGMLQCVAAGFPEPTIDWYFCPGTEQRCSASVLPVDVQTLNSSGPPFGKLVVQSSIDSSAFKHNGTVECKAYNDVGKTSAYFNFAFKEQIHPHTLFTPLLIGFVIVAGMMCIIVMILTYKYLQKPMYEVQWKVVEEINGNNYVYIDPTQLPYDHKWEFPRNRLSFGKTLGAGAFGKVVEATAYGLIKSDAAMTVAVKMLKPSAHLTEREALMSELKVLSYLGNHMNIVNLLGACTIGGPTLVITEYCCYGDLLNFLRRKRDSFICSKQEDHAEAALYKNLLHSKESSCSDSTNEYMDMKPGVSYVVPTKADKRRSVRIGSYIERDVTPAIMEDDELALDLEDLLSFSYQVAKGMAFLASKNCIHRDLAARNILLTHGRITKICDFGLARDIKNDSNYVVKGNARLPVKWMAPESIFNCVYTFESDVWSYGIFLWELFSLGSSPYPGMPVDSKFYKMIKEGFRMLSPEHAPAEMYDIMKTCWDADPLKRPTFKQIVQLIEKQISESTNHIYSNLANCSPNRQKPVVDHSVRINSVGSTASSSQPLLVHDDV
T5 sequence (O75015 17-200 limits assumed): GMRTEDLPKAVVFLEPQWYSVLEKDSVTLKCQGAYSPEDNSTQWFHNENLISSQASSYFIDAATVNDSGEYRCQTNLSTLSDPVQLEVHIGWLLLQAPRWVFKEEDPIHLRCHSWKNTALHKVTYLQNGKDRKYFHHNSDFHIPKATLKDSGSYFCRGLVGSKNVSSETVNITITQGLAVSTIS
T3 sequence (P08637 17-208 limits assumed): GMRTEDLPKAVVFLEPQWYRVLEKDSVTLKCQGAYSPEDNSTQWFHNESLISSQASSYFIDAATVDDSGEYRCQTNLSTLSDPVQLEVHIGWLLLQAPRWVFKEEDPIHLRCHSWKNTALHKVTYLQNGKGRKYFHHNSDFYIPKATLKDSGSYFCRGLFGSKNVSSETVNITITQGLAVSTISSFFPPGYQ

B1: mAb1 (antibody)
heavy: QVQLVQSGAEVKKPGASVKLSCKASGYTFTDYYINWVRQAPGKGLEWIARIYPGSGNTYYNEKFKGRATLTADKSTSTAYMQLSSLRSEDTAVYFCARGVYYFDYWGQGTTVTVSSASTKGPSVFPLAPSSKSTSGGTAALGCLVKDYFPEPVTVSWNSGALTSGVHTFPAVLQSSGLYSLSSVVTVPSSSLGTQTYICNVNHKPSNTKVDKKVEPKSCDKTHTCPPCPAPEAQGGPSVFLFPPKPKDTLYITREPEVTCVVVDVSHEDPEVKFNWYVDGVEVHNAKTKPREEQYNSTYRVVSVLTVLHQDWLNGKEYKCQVSNKALPAPIEKTISKAKGQPREPQVYTLPPSRDELTKNQVSLTCLVKGFYPSDIAVEWESNGQPENNYKTTPPVLDSDGSFFLYSKLTVDKSRWQQGNVFSCSVMHEALHNHYTQKSLSLSPG
light: DIVMTQSPSSLSASVGDRVTITCKASQNVRTNVAWYQQKPGKAPKALIYSASYRYSGVPDRFTGSGSGTDFTLTISSLQPEDFADYFCQQYNSYPRTFGGGTKVEIKRTVAAPSVFIFPPSDEQLKSGTASVVCLLNNFYPREAKVQWKVDNALQSGNSQESVTEQDSKDSTYSLSSTLTLSKADYEKHKVYACEVTHQGLSSPVTKSFNRGEC
notes: Expressed in CHO cells; also called anti-KIT antibody mAb1; Fc mutated anti-KIT antibody
B1 was tested, and the kon [1] was 1.05e+06 M⁻¹ s⁻¹, the binding result [2] was “no binding (tested: 500 nM)” and the binding result [3] was “no binding (tested: 500 nM)”. B1: no binding (tested: 500 nM) [4]; no binding (tested: 500 nM) [5]; no binding (tested: 500 nM) [6]. The Kd [7] was 77.1 nM, the koff [8] was 0.0807 s⁻¹ and the koff [9] was 0.000765 s⁻¹. The “mean IC50, inhibition of SCF-dependent M-07e cell proliferation” value [10] was 1.11 nM, the Kd [11] was 0.38 nM and the Kd [12] was 0.383 nM. The kon [12] was 2e+06 M⁻¹ s⁻¹.
